According to article PMC11480844:

B1: H2-Kb / B5 (parent)
chain 1: TQTVSQSDAHVTVFEGDSVELRCNYSYGGSIYLSWYIQHHGHGLQFLLKYYSGNPVVQGVNGFEAEFSKSDSSFHLRKASVHWSDSAVYFCAVSLYQGGRALIFGTGTTVSVSP
chain 2: EAGVTQSPRYAVLQEGQAVSFWCDPISGHDTLYWYQQPRDQGPQLLVYFRDEAVIDNSQLPSDRFSAVRPKGTNSTLKIQSAKQGDTATYLCASSFAGGARAEQFFGPGTRLTVL
chain 3: not shown
chain 4: IQKTPQIQVYSRHPPENGKPNILNCYVTQFHPPHIEIQMLKNGKKIPKVEMSDMSFSKDWSFYILAHTEFTPTETDTYACRVKHDSMAEPKTVYWDRDM
chain 5: SIINFEKL
B2: H2-Kb / F5 (parent)
chain 1: GDSVTQTEGLVTLTEGLPVMLNCTYQSTYSPFLFWYVQHLNEAPKLLLKSFTDNKRPEHQGFHATLHKSSSSFHLQKSSAQLSDSALYYCALSPSNMGYKLTFGTGTSLLVDP
chain 2: EAAVTQSPRNKVAVTGGKVTLSCNQTNNHNNMYWYRQDTGHGLRLIHYSYGAGSTEKGDIPDGYKASRPSQENFSLILELATPSQTSVYFCASGDASEQYFGPGTRLTVL
chain 3: not shown
chain 4: B1 chain 4
chain 5: SIINFEKL
B3: H2-Kb / E8 (parent)
chain 1: GDSVTQTEGLVTVTEGLPVKLNCTYQTTYLTIAFFWYVQYLNEAPQVLLKSSTDNKRTEHQGFHATLHKSSSSFHLQKSSAQLSDSALYYCALNTNTGKLTFGDGTVLTVKP
chain 2: EAAVTQSPRNKVAVTGGKVTLSCNQTNNHNNMYWYRQDTGHGLRLIHYSYGAGSTEKGDIPDGYKASRPSQENFSLILELATPSQTSVYFCASGDWGAGTGQLYFGEGSKLTVL
chain 3: not shown
chain 4: B1 chain 4
chain 5: SIINFEKL

Variants of: B1
Assay: % of reporter cells activated (NFAT-GFP), raw
Conditions: with B5; scale: % of reporter cells activated
Note: test concentration or dose not given here.

Ratio to parent of substitutions, site by site:
chain 5 I3: A 1.01; T 0.764; W 7.01; K 1.11; Y 0.917; Q 0.792; L 0.847; D 1; V 1.1; E 1.17; H 1.01; C 0.792; P 1.08; M 0.972; S 1.54; F 0.958; G 0.917; N 0.917; R 1.03
chain 5 F5: N 1.36; T 0.653; R 1; A 0.611; P 1.04; Q 1.14; E 0.472; Y 1.29; M 1.01; G 0.569; H 0.556; C 1.92; K 1.06; D 1.28; I 0.597; W 0.694; S 0.806; L 0.958; V 3.75
chain 5 E6: M 0.903; C 1.38; G 1.01; P 1.11; L 1.4; S 1.03; Q 1.24; D 1; K 1.17; Y 1.44; F 1.54; N 1.12; I 1.36; A 0.708; W 1.12; R 0.806; H 1.03; T 1.17; V 0.75
chain 5 K7: S 0.944; R 0.833; P 0.889; H 1.29; F 0.806; T 1.17; A 1.19; E 1.31; W 1.19; N 1.21; L 1.28; Q 1.01; C 1.14; I 1.4; D 1.11; Y 1.38; G 0.917; V 1.19; M 1.57
chain 5 N4: V 0.389; P 0.917; R 0.556; F 8.53; K 1.07; T 0.514; L 1.08; S 0.597; W 0.931; M 0.75; C 0.625; H 0.556; D 1.08; E 0.778; I 0.5; Q 1.71; A 0.931; G 1.33; Y 1
chain 5 L8: Y 0.958; F 1.53; N 1.49; K 0.903; I 1.06; T 1.04; D 1.33; A 1.54; G 0.972; H 1.21; S 1.19; V 1.35; R 1.78; W 1.47; E 1.42; Q 1.86; C 1.4; P 1.15; M 1.61
chain 5 I2: K 0.889; Q 1.11; G 1.13; P 1.12; A 0.736; C 0.694; W 1.51; H 0.792; M 1.58; T 0.542; L 1.17; D 1.18; F 0.875; E 1.1; S 0.694; R 0.819; V 0.375; N 1.36; Y 1.01
chain 5 S1: E 0.889; T 0.986; P 0.917; M 1.22; W 1.65; H 1.11; A 1.43; Q 1.08; N 1.24; K 0.764; L 0.764; F 1.22; R 1.14; Y 0.75; D 1.54; I 1.14; V 1.39; G 0.889; C 0.875

Variants of: B2
Assay: % of reporter cells activated (NFAT-GFP), raw
Conditions: with F5; scale: % of reporter cells activated

Ratio to parent: each site, then its substitutions
chain 5 I2: N 0.903; A 0.603; Q 0.472; G 0.989; W 1.57; F 0.577; Y 0.393; C 0.779; L 3.22; D 0.652; S 0.483; V 1.23; R 0.273; T 1.03; M 1.58; P 0.419; H 0.378; E 0.558; K 0.397
chain 5 E6: P 0.21; W 0.318; S 0.303; N 0.296; R 0.453; Q 0.288; K 0.337; H 0.27; G 0.281; L 0.341; M 0.221; Y 0.296; I 0.21; D 0.371; C 0.303; V 0.232; T 0.36; A 0.318; F 0.292
chain 5 I3: A 0.386
chain 5 F5: P 4.99; M 1.51; N 0.655; A 0.921; R 0.318; Q 1.76; K 0.247; W 1.55; H 0.659; Y 0.502; C 1.48; D 0.273; V 1.15; T 1.2; E 0.315; L 0.79; S 1.09; I 0.607; G 0.296

Variants of: B3
Assay: % of reporter cells activated (NFAT-GFP), raw
Conditions: with E8; scale: % of reporter cells activated

Ratio to parent, by site and new letter:
chain 5 I3: Y 3.36; R 0.605; A 0.244; F 2.52; W 1.9; N 0.231; V 0.61; C 0.982; M 1.45; T 0.273; E 0.331; L 1.93; P 0.735; K 0.147; D 0.0231; S 2.66; G 0.241
chain 5 K7: M 0.239; N 0.18; G 0.377; P 0.0848; H 0.14; F 0.14; D 0.288; A 0.522; W 0.235; V 0.175; Q 0.256; Y 0.121; R 1.06; C 0.196
chain 5 F5: S 1.09; Y 1.09; N 1.13; W 2.35; D 0.0471; T 0.892; H 1.61; I 0.735; Q 0.682; V 3.19; C 1.41; G 1.93; M 1.04; P 1.03; K 0.557
chain 5 N4: I 0.11; R 0.0317; D 0.0157; H 0.0899; G 0.104; A 0.402; Y 0.0136; Q 0.0151; F 0.0343; T 0.394; V 0.637; W 1.86; M 0.0197
chain 5 S1: T 0.0377; R 0.0279; Y 0.0177; F 0.0608; A 0.897; V 0.0822; H 0.0497; C 0.0291; L 0.0264; W 0.0202; N 0.0146; G 0.205; E 0.252; P 0.0215; K 0.00805; Q 0.0368
chain 5 E6: D 0.546; L 0.0214; Y 0.00591; M 0.0317; H 0.0243; P 0.169; N 0.03; K 0.03; R 0.0462; W 0.0496; I 0.0166; A 0.159; S 0.0471; F 0.018; V 0; Q 0.115; C 0.0282
chain 5 L8: M 0.838; D 0.154; H 0.898; W 0.344; C 0.214; S 0.214; T 0.444; N 0.755; P 0.187; K 0.228; V 0.473; G 0.949; Y 1.23; A 0.534; I 0.998; F 0.826; Q 0.38
chain 5 I2: P 1.66; W 3.66; Y 0.205; S 1.54; E 0.694; T 2.56; A 1.19; N 0.771; F 0.604; L 2.58; R 0.251; Q 0.307; C 1.31; D 1.78; K 0.571
